Measurements as given in US11325966.

Legend:
Experiment in all cases: cell-based or functional assay
[1] = target: HIV-1 Env of pseudovirus 6535.3 (HIV-1)
[2] = target: HIV-1 Env of pseudovirus T255-34 (HIV-1)
[3] = target: HIV-1 Env of pseudovirus BJOX025000.01.1 (HIV-1)
[4] = target: HIV-1 Env of pseudovirus SC05_8C11_2344 (HIV-1)
JR-CSF N392A (HIV-1) = JR-CSF N392A (HIV-1) (UniProt P20871)
92BR020 R327A (HIV-1) = target: 92BR020 R327A (HIV-1)
[5] = target: HIV-1 Env of pseudovirus WITO4160.33 (HIV-1)
[6] = target: HIV-1 Env of pseudovirus CNE21 (HIV-1)
[7] = target: HIV-1 Env of pseudovirus Ce1086_B2 (HIV-1)
[8] = target: HIV-1 Env of pseudovirus BJOX015000.11.5 (HIV-1)
92BR020 (HIV-1) = target: 92BR020 (HIV-1)
JR-CSF H33OA (HIV-1) = JR-CSF H33OA (HIV-1) (UniProt P20871)
[9] = target: HIV-1 Env of pseudovirus Ce704809221_1B3 (HIV-1)
[10] = target: BG505 (T332N) N137A (HIV-1)
[11] = target: HIV-1 Env of pseudovirus HIV-001428-2.42 (HIV-1)
[12] = target: HIV-1 Env of pseudovirus 6480.v4.c25 (HIV-1)
[13] = target: HIV-1 Env of pseudovirus Ce703010054_2A2 (HIV-1)
[14] = target: HIV-1 Env of pseudovirus Ce1176_A3 (HIV-1)
[15] = target: 92BR020 N136A + N156A + N301A (HIV-1)
[16] = target: HIV-1 Env of pseudovirus 3817.v2.c59 (HIV-1)
[17] = target: HIV-1 Env of pseudovirus CAAN5342.A2 (HIV-1)
[18] = target: HIV-1 Env of pseudovirus 0815.v3.c3 (HIV-1)
[19] = target: HIV-1 Env of pseudovirus R3265.c06 (HIV-1)
[20] = target: HIV-1 Env of pseudovirus A07412M1.vrc12 (HIV-1)
92BR020 N301A (HIV-1) = target: 92BR020 N301A (HIV-1)
92BR020 N386A (HIV-1) = target: 92BR020 N386A (HIV-1)
[21] = target: HIV-1 Env of pseudovirus PVO.4 (HIV-1)
[22] = target: HIV-1 Env of pseudovirus 191955_A11 (HIV-1)
[23] = target: HIV-1 Env of pseudovirus C3347.c11 (HIV-1)
[24] = target: HIV-1 Env of pseudovirus P1981_C5_3 (HIV-1)
[25] = target: HIV-1 Env of pseudovirus Q23.17 (HIV-1)
[26] = target: HIV-1 Env of pseudovirus CNE19 (HIV-1)
[27] = target: HIV-1 Env of pseudovirus Q769.d22 (HIV-1)
JR-CSF D325A (HIV-1) = JR-CSF D325A (HIV-1) (UniProt P20871)
[28] = target: HIV-1 Env of pseudovirus C1080.c03 (HIV-1)
[29] = target: HIV-1 Env of pseudovirus HIV-0013095-2.11 (HIV-1)
[30] = target: HIV-1 Env of pseudovirus TRO.11 (HIV-1)
[31] = target: HIV-1 Env of pseudovirus ZM53M.PB12 (HIV-1)
JR-CSF N332A (HIV-1) = JR-CSF N332A (HIV-1) (UniProt P20871)
[32] = target: HIV-1 Env of pseudovirus 3016.v5.c45 (HIV-1)
[33] = target: HIV-1 Env of pseudovirus Q842.d12 (HIV-1)
[34] = target: HIV-1 Env of pseudovirus ZM109F.PB4 (HIV-1)
[35] = target: HIV-1 Env of pseudovirus HIV-16055-2.3 (HIV-1)

354BG8 (antibody)
IC50 in TZM-bl assay [1]: 0.007 µg/mL
IC80 in TZM-bl assay [1]: 0.022 µg/mL
IC50 in TZM-bl assay [2]: > 10 µg/mL
IC80 in TZM-bl assay [2]: > 10 µg/mL
IC50 in TZM-bl assay [3]: > 10 µg/mL
IC80 in TZM-bl assay [3]: > 10 µg/mL
IC50 in TZM-bl assay [4]: 0.017 µg/mL
IC80 in TZM-bl assay [4]: 0.048 µg/mL
IC50 in TZM-bl assay (JR-CSF N392A (HIV-1)): 0.014 µg/mL
IC50 in TZM-bl assay (92BR020 R327A (HIV-1)): 0.011 µg/mL
IC50 in TZM-bl assay [5]: 0.111 µg/mL
IC80 in TZM-bl assay [5]: 0.828 µg/mL
IC50 in TZM-bl assay [6]: 0.047 µg/mL
IC80 in TZM-bl assay [6]: 0.124 µg/mL
IC50 in TZM-bl assay [7]: > 10 µg/mL
IC80 in TZM-bl assay [7]: > 10 µg/mL
IC50 in TZM-bl assay [8]: > 10 µg/mL
IC80 in TZM-bl assay [8]: > 10 µg/mL
IC50 in TZM-bl assay (92BR020 (HIV-1)): 0.015 µg/mL
IC50 in TZM-bl assay (JR-CSF H33OA (HIV-1)): 0.05 µg/mL
IC50 in TZM-bl assay [9]: 0.084 µg/mL
IC80 in TZM-bl assay [9]: 0.395 µg/mL
IC50 in TZM-bl assay [10]: 0.003 µg/mL
IC50 in TZM-bl assay [11]: 0.035 µg/mL
IC80 in TZM-bl assay [11]: 0.126 µg/mL
IC50 in TZM-bl assay [12]: 0.006 µg/mL
IC80 in TZM-bl assay [12]: 0.023 µg/mL
IC50 in TZM-bl assay [13]: > 10 µg/mL
IC80 in TZM-bl assay [13]: > 10 µg/mL
IC50 in TZM-bl assay [14]: 0.022 µg/mL
IC80 in TZM-bl assay [14]: 0.07 µg/mL
IC50 in TZM-bl assay [15]: 0.001 µg/mL
IC50 in TZM-bl assay [16]: 0.706 µg/mL
IC80 in TZM-bl assay [16]: 4.49 µg/mL
IC50 in TZM-bl assay [17]: 0.005 µg/mL
IC80 in TZM-bl assay [17]: 0.019 µg/mL
IC50 in TZM-bl assay [18]: 0.043 µg/mL
IC80 in TZM-bl assay [18]: 0.197 µg/mL
IC50 in TZM-bl assay [19]: > 10 µg/mL
IC80 in TZM-bl assay [19]: > 10 µg/mL
IC50 in TZM-bl assay [20]: 0.011 µg/mL
IC80 in TZM-bl assay [20]: 0.037 µg/mL
IC50 in TZM-bl assay (92BR020 N301A (HIV-1)): 0.009 µg/mL
IC50 in TZM-bl assay (92BR020 N386A (HIV-1)): 0.012 µg/mL
IC50 in TZM-bl assay [21]: 0.072 µg/mL
IC80 in TZM-bl assay [21]: 0.252 µg/mL
IC50 in TZM-bl assay [22]: > 10 µg/mL
IC80 in TZM-bl assay [22]: > 10 µg/mL
IC50 in TZM-bl assay [23]: > 10 µg/mL
IC80 in TZM-bl assay [23]: > 10 µg/mL
IC50 in TZM-bl assay [24]: 0.004 µg/mL
IC80 in TZM-bl assay [24]: 0.013 µg/mL
IC50 in TZM-bl assay [25]: 0.005 µg/mL
IC80 in TZM-bl assay [25]: 0.015 µg/mL
IC50 in TZM-bl assay [26]: 0.075 µg/mL
IC80 in TZM-bl assay [26]: > 10 µg/mL
IC50 in TZM-bl assay [27]: > 10 µg/mL
IC80 in TZM-bl assay [27]: > 10 µg/mL
IC50 in TZM-bl assay (JR-CSF D325A (HIV-1)): 0.005 µg/mL
IC50 in TZM-bl assay [28]: > 10 µg/mL
IC80 in TZM-bl assay [28]: > 10 µg/mL
IC50 in TZM-bl assay [29]: > 10 µg/mL
IC80 in TZM-bl assay [29]: > 10 µg/mL
IC50 in TZM-bl assay [30]: 0.011 µg/mL
IC80 in TZM-bl assay [30]: 0.039 µg/mL
IC50 in TZM-bl assay [31]: > 10 µg/mL
IC80 in TZM-bl assay [31]: > 10 µg/mL
IC50 in TZM-bl assay (JR-CSF N332A (HIV-1)): > 50 µg/mL
IC50 in TZM-bl assay [32]: > 10 µg/mL
IC80 in TZM-bl assay [32]: > 10 µg/mL
IC50 in TZM-bl assay [33]: > 10 µg/mL
IC80 in TZM-bl assay [33]: > 10 µg/mL
IC50 in TZM-bl assay [34]: > 10 µg/mL
IC80 in TZM-bl assay [34]: > 10 µg/mL
IC50 in TZM-bl assay [35]: > 10 µg/mL
IC80 in TZM-bl assay [35]: > 10 µg/mL
